Measurements from EP0969015A2, “Peptide diagnostic markers for human disorders” (Ortho-Clinical Diagnostics, Inc., priority 1998, dated 2000).

How the values were obtained:
[1] = Stability of peptides in urine samples; settings: compared with the gluten/casein related peptides; not studied in a systematic manner
[2] = relative to morphine; cited from earlier work

Substance | stability in urine [1] | opiate activity [2]
NH4-Tyr AlaPheGluValValGly-COOH (H-YAFEVVG-OH) [deltorphin II] | more stable in urine than the gluten/casein related peptides | –
NH4-TyrAlaPheGlyTyrProSer-COOH [dermorphin] | more stable in urine than the gluten/casein related peptides | 1000 times
